In the experiment the target is T1, MMP-9 (Homo sapiens, UniProt P14780).
T1 construct: purchased Calbiochem
Description: MMP-9 cleavage efficiency assay (RP-HPLC). In kind it is biochemical. Conditions: 120 μM, MMP-9 24 hrs, disappearance of peak at 29 minutes. On the procedure: To 5 μL of enzyme was added 0.4 μL of a 24 mM π-aminophenyl mercuric acetate solution in freshly prepared 0.1 M NaOH. The enzyme solution was heated at 37° C. for 2 hrs prior to use.
120 μM of M1 (with respect to peptide) and 120 μM of Peptide-1 were treated with MMP-9 (100 μU, 1.25 μL) for 24 hrs. The control was performed using 120 μM of Peptide-1 without treatment with MMP-9. These samples were then analyzed by RP-HPLC following inactivation of MMP-9 at 65° C. for 20 mins (FIG. 21A). Peak A is the intact, full length Peptide-1 without treatment with MMP-9, and Peak B is the large fragment of Peptide-1 cleaved by MMP-9 as confirmed by MALDI-MS shown in FIG. 21B, left.

Where no end group is shown, it is not given here.

T1 sequence (P14780 107-707 limits assumed): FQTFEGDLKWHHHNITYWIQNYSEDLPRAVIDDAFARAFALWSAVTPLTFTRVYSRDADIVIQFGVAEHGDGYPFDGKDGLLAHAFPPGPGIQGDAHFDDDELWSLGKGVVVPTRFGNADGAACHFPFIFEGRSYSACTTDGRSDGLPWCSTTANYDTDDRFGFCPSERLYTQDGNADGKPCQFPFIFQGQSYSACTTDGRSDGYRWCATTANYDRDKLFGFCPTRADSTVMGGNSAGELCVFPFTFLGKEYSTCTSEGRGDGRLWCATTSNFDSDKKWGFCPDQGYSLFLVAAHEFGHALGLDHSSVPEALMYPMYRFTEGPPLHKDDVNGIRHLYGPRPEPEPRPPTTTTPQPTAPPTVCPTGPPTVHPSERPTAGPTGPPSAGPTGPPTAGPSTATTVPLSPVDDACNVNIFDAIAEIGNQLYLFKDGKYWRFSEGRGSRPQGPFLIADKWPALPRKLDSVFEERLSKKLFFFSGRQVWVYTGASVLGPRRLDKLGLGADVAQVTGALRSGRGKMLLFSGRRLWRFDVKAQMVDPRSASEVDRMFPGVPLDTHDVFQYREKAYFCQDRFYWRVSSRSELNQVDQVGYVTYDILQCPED

On to GPLGLAGKWAAAAKAAAAK [Peptide-1], for which the “MMP-9 cleavage efficiency” value was “quantitative”.
